Laboratory results: US20090098103A1

How the values were obtained:
[1] = biological target: Human Recombinant TFPI (R&D Systems) (human) (UniProt P10646); assay: SPR (Biacore T100), TFPI on CM5 chip, 320 nM FVIIa + 620 nM sTF; 293-F cells
[2] = biological target: Human Recombinant TFPI (R&D Systems) (human) (UniProt P10646); assay: SPR (Biacore T100), TFPI on CM5 chip, 320 nM FVIIa + 620 nM sTF; BHK-21 cells

Sequence of UniProt P10646 (P10646 29-282): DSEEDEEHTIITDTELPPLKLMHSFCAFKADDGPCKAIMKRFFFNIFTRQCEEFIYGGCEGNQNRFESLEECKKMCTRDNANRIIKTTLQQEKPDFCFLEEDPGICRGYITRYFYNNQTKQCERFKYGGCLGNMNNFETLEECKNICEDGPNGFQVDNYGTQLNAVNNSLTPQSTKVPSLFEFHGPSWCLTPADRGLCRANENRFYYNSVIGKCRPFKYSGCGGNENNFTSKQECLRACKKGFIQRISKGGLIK

Binding (wt/variant) [1] | Dissociation (wt/variant) [1] | Binding (wt/variant) [2] | Dissociation (wt/variant) [2] | Substance
1.4 | 1.3 | – | – | FVIIa variant CB558 K197E (from UniProt P08709 61-466) (enzyme)
1.4 | 1.4 | – | – | FVIIa variant CB563 K199E (from UniProt P08709 61-466) (enzyme)
1.9 | 1.8 | – | – | FVIIa variant CB592 M298Q (from UniProt P08709 61-466) (enzyme)
0.8 | 0.8 | 1 | 1 | FVIIa variant CB593 V158D/E296V/M298Q (from UniProt P08709 61-466) (enzyme)
2.2 | 1.8 | – | – | FVIIa variant CB608 G237V (from UniProt P08709 61-466) (enzyme)
– | 19.7 | – | – | FVIIa variant CB609 K341Q (from UniProt P08709 61-466) (enzyme)
67.2 | 171 | – | – | FVIIa variant CB637 K197E/K341Q (from UniProt P08709 61-466) (enzyme)
12.8 | 12.4 | – | – | FVIIa variant CB670 G237V/K341Q (from UniProt P08709 61-466) (enzyme)
18.9 | 21.8 | – | – | FVIIa variant CB671 K197E/G237V/K341Q (from UniProt P08709 61-466) (enzyme)
2.2 | 2.1 | – | – | FVIIa variant CB688 K197E/K199E (from UniProt P08709 61-466) (enzyme)
1.8 | 1.6 | – | – | FVIIa variant CB689 K197E/G237V (from UniProt P08709 61-466) (enzyme)
33.9 | 68.1 | – | – | FVIIa variant CB691 K197E/K199E/K341Q (from UniProt P08709 61-466) (enzyme)
15.9 | 21.5 | – | – | FVIIa variant CB692 K197E/G237V/M298Q/K341Q (from UniProt P08709 61-466) (enzyme)
23.4 | 43.5 | – | – | FVIIa variant CB693 K197E/K199E/G237V/M298Q/K341Q (from UniProt P08709 61-466) (enzyme)
18.8 | 30.7 | – | – | FVIIa variant CB694 K199E/K341Q (from UniProt P08709 61-466) (enzyme)
0.9 | 0.8 | – | – | FVIIa variant CB695 G237V/M298Q (from UniProt P08709 61-466) (enzyme)
4.5 | 6 | – | – | FVIIa variant CB696 G237V/M298Q/K341Q (from UniProt P08709 61-466) (enzyme)
1.6 | 1.5 | – | – | FVIIa variant CB697 R290N (from UniProt P08709 61-466) (enzyme)
1.3 | 1.2 | – | – | FVIIa variant CB698 R290Q (from UniProt P08709 61-466) (enzyme)
0.7 | 0.7 | – | – | FVIIa variant CB699 R290K (from UniProt P08709 61-466) (enzyme)

Binding (wt/variant) [1] | Dissociation (wt/variant) [1] | Binding (wt/variant) [2] | Dissociation (wt/variant) [2] | Substance
1.1 | 1.1 | – | – | FVIIa variant CB700 R290M (from UniProt P08709 61-466) (enzyme)
2.6 | 2.7 | – | – | FVIIa variant CB701 R290V (from UniProt P08709 61-466) (enzyme)
11.3 | 63.8 | – | – | FVIIa variant CB733 K341N (from UniProt P08709 61-466) (enzyme)
4.9 | 5.4 | – | – | FVIIa variant CB734 K341M (from UniProt P08709 61-466) (enzyme)
186 | 381 | – | – | FVIIa variant CB735 K341D (from UniProt P08709 61-466) (enzyme)
– | – | 6.5 | 18.2 | FVIIa variant CB853 G237T238insA (from UniProt P08709 61-466) (enzyme)
– | – | 5.2 | – | FVIIa variant CB854 G237T238insS (from UniProt P08709 61-466) (enzyme)
– | – | 7.3 | 16.8 | FVIIa variant CB855 G237T238insV (from UniProt P08709 61-466) (enzyme)
– | – | 22.8 | 154 | FVIIa variant CB856 G237T238insAS (from UniProt P08709 61-466) (enzyme)
– | – | 21.5 | 146 | FVIIa variant CB857 G237T238insSA (from UniProt P08709 61-466) (enzyme)
– | – | 1 | 0.8 | FVIIa variant CB858 D196K197insK (from UniProt P08709 61-466) (enzyme)
– | – | 0.5 | 0.5 | FVIIa variant CB859 D196K197insR (from UniProt P08709 61-466) (enzyme)
– | – | 0.5 | 0.4 | FVIIa variant CB862 D196K197insA (from UniProt P08709 61-466) (enzyme)
– | – | 0.4 | 0.4 | FVIIa variant CB863 D196K197insM (from UniProt P08709 61-466) (enzyme)
– | – | 1.3 | 1.1 | FVIIa variant CB864 K197I198insE (from UniProt P08709 61-466) (enzyme)
– | – | 1.1 | 1 | FVIIa variant CB865 K197I198insY (from UniProt P08709 61-466) (enzyme)
– | – | 0.7 | 0.6 | FVIIa variant CB867 K197I198insS (from UniProt P08709 61-466) (enzyme)
2.6 | 2.3 | – | – | FVIIa variant CB902 K197E/M298Q (from UniProt P08709 61-466) (enzyme)
147 | 196 | – | – | FVIIa variant CB945 M298Q/K341D (from UniProt P08709 61-466) (enzyme)
1 | 1 | 1 | 1 | wild-type Factor VII polypeptide (CB553-02), activated (FVIIa) (from UniProt P08709 61-466) (enzyme)
